Measurements: the DeepSol protein solubility set

experiment: soluble on expression in E. coli; label from the status in PepcDB or PDB records

Sequence	soluble on expression in E. coli
MRMKQTIPSSYVGLKINEWYTHIRQFHVAEAERVKLEVEREIEDMEEDQDLLLYYSLMEFRHRVMLDYIKPFGEDTSQLEFSELLEDIEGNQYKLTGLLEYYFNFFRGMYEFKQKMFVSAMMYYKRAEKNLALVSDDIEKAEFAFKMAEIFYNLKQTYVSMSYAVQALETYQMYETYTVRRIQCEFVIAGNYDDMQYPERALPHLELALDLAKKEGNPRLISSALYNLGNCYEKMGELQKAAEYFGKSVSICKSEKFDNLPHSIYSLTQVLYKQKNDAEAQKKYREGLEIARQYSDELFVELFQFLHALYGKNIDTESVSHTFQFLEEHMLYPYIEELAHDAAQFYIENGQPEKALSFYEKMVHAQKQIQRGDCLYEI	not soluble
MSLETGVTNDAIIIGQSAAMSGPAGKLGQQMNLGAKLYFKSINAAGGIYGRKIELKVLDDFYEPEAAERNTKTLINDTKVFALFGYVGTPTSLAALKVANPAGVPFFAPYSGAMALREPFARNVFHVRASYNDETAAIVQQIRTTGHKRVAVVYNDDSYGAAGLAGVKRALALPENKAVALAVEASVPRNSTTVKAALSKVLPSKADSVVVISTYQTTAALVKEALAEGFTGQFYNVSFVGTKELADALGSAGGGVVVSQVMPFPHSMSSALTRDYEKLLKADGVTSFDYGSMEGYIAARIFVEGLKRAGRDLTREKLITALETMGSTDLGGFAVSFSPTNHVASKFVEMTVINSHGQVIREGHHHHHH	soluble
MGHHHHHHSHMANCEGTDGDGTGCNGWFFVQAIVDKQTGDTVSEDEDENATDTGSDMVDFIDDATDICIQAERETAQVLLNMQQAQRDAQTVRALKRKYTDSIESSPLAKSPLQELSIWKWKLTRR	not soluble
MCPKCGTECDKLFDSVCRDCFFETFKLIDLPLVLHVKICSSCGAYFHRSRWENIGNLEEVVLKAVENALFIHDEAGDVELYLEPKEITPYIYMVRAEVDAIVRGEPVHAEAATEVRVQRIACDMCSRESGGYFEAIIQIRAAGRFPTEEEKRRCSAIAREAMESMKKKGDRLAFISDYQEQKEGIDLYMGSMNASRQVCRMIISELGGSFAESPTLVGMKDGKNLYRITFAMRLPLEHHHHHH	not soluble
MTVKIALLGFGTVASGVPFLLKENGGKINQSAHSDIKVAKVLVKDEDEKNRLLAAGNDFNFVTNVDDILSDQDITIVVELMGRIEPAKTFITRALEAGKHVVTANKDLLAVHGAELLEIAQANKVALYYEAAVAGGIPILRTLANSLASDKITRVLGVVNGTSNFMVTKMVEEGWSYDDALAEAQRLGFAESDPTNDVDGIDAAYKMVILSQFAFGMKIAFDDVAHKGIRNITPEDVAVAQELGYVVKLVGSIEETSSGIAAEVTPTFLPKAHPLASVNGVMNAVFVESIGIGESMYYGPGAGQKPTATSVVADIVRIVRRLNDGTIGKDFNEYSRDLVLANPEDVKANYYFSILALDSKGQVLKLAEIFNAQDISFKQILQDGKEGDKARVVIITHKINKAQLENVSAELKKVSEFDLLNTFKVLGE	soluble
GSHMQSYQISSRLMAQEGQRTSVQTSSLIQSLFDFRLAALRIHQDSTAKNASLINALVSRDSSRLDEFFSSVDELELSNAPDLRFISSHDNILWDDGNASFYGIAQQELNKLIRRVAISGNWHLVQTPSEGKSVHILMRRSSLIEAGTGQVVGYLYVGIVLNDNFALLENIRSGSNSENLVLAVDTTPLVSTLKGNEPYSLDYVVHSAKDAMRDSFIVGQTFLEVESVPTYLCVYSIQTNQNVLTLRDNESVPTYLCVYSIQTNQNVRHQ	soluble
AVPETRPNHTIYINNLNEKIKKDELKKSLYAIFSQFGQILDILVSRSLKMRGQAFVIFKEVSSATNALRSMQGFPFYDKPMRIQYAKTDSDIIAKMKGTFVERDRKREKRKPKSQE	soluble
MSAICQVTGRQPGYGKSVSHSHRRTSRRWNPNVQRRKFYLPSEGRTITLNVSTKGLKVIDRDGIESVVAKIRARGEKILEHHHHHH	not soluble
MAHHHHHHMGLVDAYDRAATTEIANESLKDVRPDIVHQCLLALFDSDLAYQHRLRVYMSLFVRQGKVIEVSPALRPPRTYARFRGLMSALLRDGRICSTDGQVLMRLMPGSVAPIIPHGAEVVGLTNSLSSPVVTATQLAQQAVAAPVDDSLQGGIKHVTAFYCISCTDDCNLDGIDYITKSVCLSAYPMTAHVQCARVCEGHTRVEPASSVSGSAAGMGVGGGQAKTDRCSAPEPPKRRGEVFPANQAEDNKL	not soluble
MLLVMGAHESGLDRARLQSLYEQLVATNEDETEKLAASGHSTGLVASEWARFLAPFDFGYRLVALQRESKRVAAALTRALYGIDTSGASEHDPLWAVEHRVLPVPVTDRLLFCEMRFLLVLALSRRLWMRLERVDPLGQENPFPRDAEIIERVEDLARQSRERLALLAERSPEALNAGKQEAHDCIEDLRTKETRAAEQVAGFAQALGDAALLEKVWHALVDEIAQNRQLNHALLQTLCQWVLMLIGADTEVPSSASCSDE	soluble
MRRKMIMKIIQITDTHLLPPGIAINGVDPENQLRAAVADIVEKHADADLLVMTGDLCNYGEPEAYELLRDILAPVSIPTRLMLGNHDRRPEFVAAFPEQPRDDNGYIQSFIDTEFGRLLFLDSHEADVIGGIYGADRLTWLENALESAGDLPITVFVHHPPMDCGIRHFEHIGMHDDGAIMRRLAAHPAGIRHIVFGHIHVPMAGTTAEGIAYSSGQACAHRFITDIDVVDPLWTGGNPCYRVISLGAFGLRAYDAEVGQPVLGQTPVCEGP	not soluble
MSLQELPVPKPHQLKWHEAEMGAVFHYDLHVFDGIRYGQGNNRINPIEDYNIFNPTELNTDQWVQAAKAAGCKFAVLTATHETGFGLWQSDVNPYCLKAVKWRDGKGDIVRDFVNSCRKYGLQPGIYIGIRWNSLLGIHNFKAEGEGAFARNRQAWYKRLCEKMVTELCTRYGDLYMIWFDGGADDPRADGPDVEPIVNKYQPNCLFYHNIDRADFRWGGSETGTVEYPCWSTFPVPCSHHKRIESSIDQLELLKHGDKNGRYWVPAMADTPLRGANGRHEWFWEPDDENNIYPLNTLMDKYEKSVGRNATLILGLTPDPTGLIPAGDAQRLKEMGDEINRRFSSPIARISGQKKSLTLKLGKEQSVNYCIIQENIKNGERIRQYQIEAKVNGKWQTVCKGESVGHKRIEKFEPVEATALRLTVSESIALPDIINFSAYSVKEGHHHHHH	soluble
KIVCDFTEYNPLHKGHKYALEKGKEHGIFISVLPGPLERSGRGIPYFLNRYIRAEMAIRAGADIVVEGPPMGIMGSGQYMRCLIKMFYSLGAEIIPRGYIPEKTMEKVIDCINKGYHIQVKPYKIICIETGEILGEKLNIDNYVIASMSQMIYKLNREGLKFNPKFVFVKRLEGISGTKIREAIFSGKFEDIKNMLPKTTLSILKELYDNGKL	not soluble
MGSDKIHHHHHHMKLKNDELTVEFKPEGATISSIRDRDGVEYLWQGNPEYWGGQAPVLFPICGSLRNDGATFQVGEKTISGSMPRHGIVRKRTFDLVKHTENEIQFRILSDDEMLKQYPFPFELQLTYRLDGKRLETEYAIRYLGELDAMPFFIGGHPGFNCPLLEDEAFDDYYLEFELEEDCTIPESFPETGLLDFSKRQPMLSKTRILDLNYELFQHDALTFDNLKSRKVALKTKNHQKGLKVSFEDFPFLVVWTTTNKGPFIALEPWSGLSTSLTETDNFIDKTHVTYVEKGEVSRKAFTIEIC	not soluble
MSLSKTYHFIGIKGSGMSALALMLHQMGHKVQGSDVEKYYFTQRGLEQAGITILPFDEKNLDGDMEIIAGNAFRPDNNVEIAYADQNGISYKRYHEFLGSFMRDFVSMGVAGAHGKTSTTGMLSHVLSHITDTSFLIGDGTGRGSANAKYFVFESDEYERHFMPYHPEYSIITNIDFDHPDYFTSLEDVFNAFNDYAKQITKGLFVYGEDAELRKITSDAPIYYYGFEAEGNDFVASDLLRSTTGSTFTVHFRGQNLGQFHIPTFGRHNIMNATAVIGLLYTAGFDLNLVREHLKTFAGVKRRFTEKIVNDTVIIDDFAHHPTEIIATLDAARQKYPSKEIVAVFQPHTFTRTIALLDDFAHALNQADAVYLAQIYGSAREVDHGDVKVEDLANKINKKHQVITVENVSPLLDHDNAVYVFMGAGDIQTYEYSFERLLSNLTSNVQEGHHHHHH	soluble
MIKLRMPAGGERYIDGKSVYKLYLMIKQHMNGKYDVIKYNWCMRVSDAAYQKRRDKYFFQKLSEKYKLKELALIFISNLVANQDAWIGDISDADALVFYREYIGRLKQIKFKFEEDIRNIYYFSKKVEVSAFKEIFEYNPKVQSSYIFKLLQSNIISFETFILLDSFLNIIDKHDEQTDNLVWNNYSIKLKAYRKILNIDSQKAKNVFIETVKSCKY	soluble
MSLQLRSRAAFKLEFLLDRYRVVRKGDAVIEIGSSPGGWTQVLNSLARKIISIDLQEMEEIAGVRFIRCDIFKETIFDDIDRALREEGIEKVDDVVSDAMAKVSGIPSRDHAVSYQIGQRVMEIAVRYLRNGGNVLLKQFQGDMTNDFIAIWRKNFSSYKISKPPASRGSSSEIYIMFFGFKAEGHHHHHH	soluble
MVQTVLNSVWLWRSVLLRLTFSDSGSFLGQSFLLFSSGFWSVLVEQLEGFSSGVSVQSVLELSNGWRNLQSDGQDLLLSLQSDIFWPFDVSGQVSLWLDSLANTEVLWSRVSQWVLSLVRLSGLSTEWSWSNFLTWSHLFFQLSCSLY	soluble
MQIYLSTLTELDYDKSLNSIEESFDDNPETSWQARAKVKHLRKSPCYNFELEVIAKNENNDVVGHVLLIEVEINSDDKTYYGLAIASLSVHPELRGQKLGRGLVQAVEERAKAQEYSTVVVDHCFDYFEKLGYQNAAEHDIKLEFGDAPLLVKYLWDNLTDAPHGIVKFPEHFY	not soluble
MSLKVLVTGGAGYVGTELVLKLAKDPSISKVVVFDNLSRENYNLFINSAQRIAKDKIQFEFGDLLDSRKIRKILADIDVVYHLAARVSTPFANADSHLYEQVNHWGTAELVYAIEEIKTVQKLIYVSSCSVYGSGKELIDENSVVNPKTIYGVSKMRGEEHVSRLGNKMNAVIIRLGNVYGYSSSMRFDAVINKFMFESHYKNRISIHGNGRQSRSFIHVDKAVDSLVKITSTDIPSGTYNLTERNLEIYDLIDQVKDLYPTLEFIFINQHLELREQKINPETKLLKYIPLQQTDFTAELAAFRDHFTFQTTSEGHHHHHH	soluble
FKIETTPESRYLAQIGDSVSLTCSTTGCESPFFSWRTQIDSPLNGKVTNEGTTSTLTMNPVSFGNEHSYLCTATCESRKLEKGIQVEIYSFPKDPEIHLSGPLEAGKPITVKCSVADVYPFDRLEIDLLKGDHLMKSQEFLEDADRKSLETKSLEVTFTPVIEDIGKVLVCRAKLHIDEMDSVPTVRQAVKELQVYISPKNT	soluble
MRGSHHHHHHTDPALRADIIFYHPTFDTQWWIEALRKAIPQARVRAWKSGDNDSADYALVWHPPVEMLAGRDLKAVFALGAGVDSILSKLQAHPEMLNPSVPLFRLEDTGMGEQMQEYAVSQVLHWFRRFDDYRIQQNSSHWQPLPEYHREDFTIGILGAGVLGSKVAQSLQTWRFPLRCWSRTRKSWPGVQSFAGREELSAFLSQCRVLINLLPNTPETVGIINQQLLEKLPDGAYLLNLARGVHVVEDDLLAALDSGKVKGAMLDVFNREPLPPESPLWQHPRVTITPHVAAITRPAEAVEYISRTIAQLEKGERVCGQVDRARGYGLCGR	soluble
MNIIWQLGTCNIRQVLAEVPEPKPPYTTLASVFKNLERKHYIKPFREGKTYHYRICISREEYATRTMHRMVDNYFTGSYKHLVQFFAAGSDISVKDLREVIDMIEKGEESE	not soluble
